Data: US20240200091A1, “USE OF PROTOPORPHYRINOGEN OXIDASE” (BEIJING DABEINONG BIOTECHNOLOGY CO., LTD., priority 2021, published 2024)

Assays:
Assay type in all cases: in vivo
Details in all cases: for The grade of pesticide damage/plant: number of plants of grade 0 / The grade of pesticide damage/plant: number of plants of grade 1 / The grade of pesticide damage/plant: number of plants of grade 2 / The grade of pesticide damage/plant: number of plants of grade 3: 7 DAT, 16 maize plants per genotype
transgenic maize plants [1] = experiment: oxyfluorfen tolerance of transgenic maize plants (spray, grade of pesticide damage)
transgenic maize plants [2] = experiment: saflufenacil tolerance of transgenic maize plants (spray, grade of pesticide damage)
transgenic maize plants [3] = experiment: flumioxazin tolerance of transgenic maize plants (spray, grade of pesticide damage)
[4] = oxyfluorfen 360 g ai/ha (2x field concentration)
[5] = oxyfluorfen 720 g ai/ha (4x field concentration)
[6] = saflufenacil 50 g ai/ha (2x field concentration)
[7] = saflufenacil 100 g ai/ha (4x field concentration)
[8] = flumioxazin 120 g ai/ha (2x field concentration)
[9] = flumioxazin 240 g ai/ha (4x field concentration)

B1: PPO-APB: nucleotide sequence encoding Arsenophonus protoporphyrinogen oxidase PPO-AP (SEQ ID NO:65), maize common codon usage bias (nucleic acid)
DNA: ATGTCCTACCTCTTGCTGTATTCGGGGAAAAATGGTCAAACCAAGAAGATCATCCTCAAAATAACTGAATATCTTCGTAAAGAAGGAAAGCAGTGCGACGTCAGAGATCTTAACATGGACAAGAATTTTAATTTAAGTGTGTACCAGAAGGTTCTTGTCGGAGCTTCAATTCGCTACGGCCACTTCAACCCCGCCGTGCTGAACTTCGCGCAGAATCATCAAAAAGAGCTGAACACAATTCAATCTGCCTTCTTTGGCGTCAACCTGATGGCGAGGAAGCAAGGGAAGGATACACCAGAAACCAATGTTTATGTTCGGAAGTTTTTGGCTAAAATTCCATGGCAGCCGACGATCACCAACGTATTTAGCGGTGCACTCAGATATCCTCAGTACAAGTGGCTGGATAGGATAATGATCCAGTTCATCATGAAGATTACTGGCGGCGAGACAAATAAGAACAAGGAGGTGGAGTACACGGACTGGGAGAAAGTGGAATACTTCGCCCGCGAGTTCAATGCACTAAAATGA
modifications: The nucleotide sequence of PPO-APB
tolerance to oxyfluorfen (transgenic maize plants [1]; maize, oxyfluorfen at four-fold field concentration (720 g ai/ha)): no tolerance
share of the plants that exhibited no tolerance (transgenic maize plants [1]; maize, oxyfluorfen at two-fold field concentration (360 g ai/ha)): about 50%
The grade of pesticide damage/plant: number of plants of grade 0 (transgenic maize plants [1]; [4]): 0
The grade of pesticide damage/plant: number of plants of grade 1 (transgenic maize plants [1]; [4]): 0
The grade of pesticide damage/plant: number of plants of grade 2 (transgenic maize plants [1]; [4]): 8
The grade of pesticide damage/plant: number of plants of grade 3 (transgenic maize plants [1]; [4]): 8
The grade of pesticide damage/plant: number of plants of grade 0 (transgenic maize plants [1]; [5]): 0
The grade of pesticide damage/plant: number of plants of grade 1 (transgenic maize plants [1]; [5]): 0
The grade of pesticide damage/plant: number of plants of grade 2 (transgenic maize plants [1]; [5]): 0
The grade of pesticide damage/plant: number of plants of grade 3 (transgenic maize plants [1]; [5]): 16
tolerance to saflufenacil (transgenic maize plants [2]; maize, saflufenacil at four-fold field concentration (100 g ai/ha)): basically no tolerance
share of the plants that exhibited no tolerance (transgenic maize plants [2]; maize, saflufenacil at two-fold field concentration (50 g ai/ha)): about 56
The grade of pesticide damage/plant: number of plants of grade 0 (transgenic maize plants [2]; [6]): 0
The grade of pesticide damage/plant: number of plants of grade 1 (transgenic maize plants [2]; [6]): 0
The grade of pesticide damage/plant: number of plants of grade 2 (transgenic maize plants [2]; [6]): 7
The grade of pesticide damage/plant: number of plants of grade 3 (transgenic maize plants [2]; [6]): 9
The grade of pesticide damage/plant: number of plants of grade 0 (transgenic maize plants [2]; [7]): 0
The grade of pesticide damage/plant: number of plants of grade 1 (transgenic maize plants [2]; [7]): 0
The grade of pesticide damage/plant: number of plants of grade 2 (transgenic maize plants [2]; [7]): 1
The grade of pesticide damage/plant: number of plants of grade 3 (transgenic maize plants [2]; [7]): 15
The grade of pesticide damage/plant: number of plants of grade 0 (transgenic maize plants [3]; [8]): 0
The grade of pesticide damage/plant: number of plants of grade 1 (transgenic maize plants [3]; [8]): 0
The grade of pesticide damage/plant: number of plants of grade 2 (transgenic maize plants [3]; [8]): 3
The grade of pesticide damage/plant: number of plants of grade 3 (transgenic maize plants [3]; [8]): 13
The grade of pesticide damage/plant: number of plants of grade 0 (transgenic maize plants [3]; [9]): 0
The grade of pesticide damage/plant: number of plants of grade 1 (transgenic maize plants [3]; [9]): 0
The grade of pesticide damage/plant: number of plants of grade 2 (transgenic maize plants [3]; [9]): 0
The grade of pesticide damage/plant: number of plants of grade 3 (transgenic maize plants [3]; [9]): 16
tolerance to flumioxazin (transgenic maize plants [3]; maize, flumioxazin at different concentrations (120 and 240 g ai/ha)): basically no tolerance
